Biological target: the molecule itself
Assay: SEC; data not shown; 10 uM AGTmi E274D with 100 uM PLP, Sephacryl S-300 10/600 column, 100 mM potassium phosphate buffer pH 7.4, elution volume compared with molecular weight standards

B1: alanine: glyoxylate aminotransferase, minor allele variant, E274D (enzyme, human)
chain: MASHKLLVTPLKALLKPLSIPNQLLLGPGPSNLPPRIMAAGGLQMIGSMSKDMYQIMDEIKEGIQYVFQTRNPLTLVISGSGHCALEAALVNVLEPGDSFLVGANGIWGQRAVDIGERIGARVHPMTKDPGGHYTLQEVEEGLAQHKPVLLFLTHGESSTGVLQPLDGFGELCHRYKCLLLVDSVASLGGTPLYMDRQGIDILYSGSQKALNAPPGTSLISFSDKAKKKMYSRKTKPFSFYLDIKWLANFWGCDDQPRMYHHTIPVISLYSLRDSLALIAEQGLENSWRQHREAAAYLHGRLQALGLQLFVKDPALRLPTVTTVAVPAGYDWRDIVSYVMDHFDIEIMGGLGPSTGKVLRIGLLGCNATRENVDRVTEALRAALQHCPKKKL
notes: alanine: glyoxylate aminotransferase (AGT), human, minor allele (P11L, I340M) with the PH1-associated mutation E274D; SEC was run in the presence of 100 uM PLP (holo form); E274D was found in patients on the minor allele; also called AGTmi E274D; AGTmi^E274D; source: bacteria (pET30a), purified
With B1 the “stoichiometry N” value was 2.
